Source: PMC9016894, “MdMYB10 affects nitrogen uptake and reallocation by regulating the nitrate transporter MdNRT2.4-1 in red-fleshed apple”

Tests used:
Details in all cases: protein: recombinant; tags: His (pET32a); blunt
[1] = target: T1, MdMYB10-HIS (also printed MdMYB1-HIS) (Malus domestica? (apple), UniProt E2RZU2 1-243); assay: EMSA; not stated (EMSA as described by Xie et al. [40])
T1 sequence: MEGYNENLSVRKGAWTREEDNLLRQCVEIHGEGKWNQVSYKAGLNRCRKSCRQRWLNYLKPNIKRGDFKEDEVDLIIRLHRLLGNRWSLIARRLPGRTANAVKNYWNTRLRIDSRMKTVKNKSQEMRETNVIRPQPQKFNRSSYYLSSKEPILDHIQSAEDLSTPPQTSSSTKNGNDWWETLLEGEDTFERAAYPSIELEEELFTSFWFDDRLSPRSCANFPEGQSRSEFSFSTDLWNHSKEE

[2] = target: T1, MdMYB10-HIS (also printed MdMYB1-HIS); assay: competition; unlabeled MBS-1m against labeled MBS-1; no competition; not stated (EMSA as described by Xie et al. [40])
[3] = target: T1, MdMYB10-HIS (also printed MdMYB1-HIS); assay: EMSA; shift seen; authors judge it non-specific; not stated (EMSA as described by Xie et al. [40])

B1: MdNRT2.4-1(MBS-1) (dsDNA)
DNA 1: TTATAGAGGGTTTTGAGTTGACCGTGTGAAGGGTTGTGAAGAGGC
DNA 2: GCCTCTTCACAACCCTTCACACGGTCAACTCAAAACCCTCTATAA
B1: binds [1].

B2: MdNRT2.4-1(MBS-1m) (dsDNA)
DNA 1: TTATAGAGGGTTTTGAGTTGATTGTGTGAAGGGTTGTGAAGAGGC
DNA 2: GCCTCTTCACAACCCTTCACACAATCAACTCAAAACCCTCTATAA
B2: no binding [2].

B3: MdNIA2-1(MRE) (dsDNA)
DNA 1: AAGATTTCAGTTTAACAATTAGGTTGATTAGGAACCGGAACCAAA
DNA 2: TTTGGTTCCGGTTCCTAATCAACCTAATTGTTAAACTGAAATCTT
B3: binds [3].
